doi:10.1101/483925 (bioRxiv, 2018)

T1: FD, full-length, phosphomimic variant T282E (Arabidopsis thaliana, UniProt Q84JK2 1-285, T282E)
T1 sequence: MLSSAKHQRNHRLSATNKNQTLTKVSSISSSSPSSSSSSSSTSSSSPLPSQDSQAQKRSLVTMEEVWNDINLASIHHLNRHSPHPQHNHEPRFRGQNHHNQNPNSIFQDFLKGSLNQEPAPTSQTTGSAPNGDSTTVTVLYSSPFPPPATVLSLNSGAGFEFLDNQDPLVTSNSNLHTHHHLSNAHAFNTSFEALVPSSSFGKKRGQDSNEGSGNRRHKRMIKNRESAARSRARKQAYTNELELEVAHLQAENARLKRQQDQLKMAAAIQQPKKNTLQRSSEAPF

B1: 14-3-3n (At3g02520; GRF7) (natural protein)
chain: MSSSREENVYLAKLAEQAERYEEMVEFMEKVAKTVDTDELTVEERNLLSVAYKNVIGARRASWRIISSIEQKEESRGNDDHVSIIKDYRGKIETELSKICDGILNLLDSHLVPTASLAESKVFYLKMKGDYHRYLAEFKTGAERKEAAESTLVAYKSAQDIALADLAPTHPIRLGLALNFSVFYYEILNSPDRACSLAKQAFDEAISELDTLGEESYKDSTLIMQLLRDNLTLWNSDINDEAGGDEIKEASKHEPEEGKPAETGQ

How the values were obtained:
[1] = target: B1; assay: native gel or EMSA
[2] = target: T1, FD, full-length, phosphomimic variant …; assay: native gel or EMSA

Binder | binding result [1] | binding result [2]
FLOWERING LOCUS T (FT) (natural protein) not shown | binds | –
FD-C_T282E, phosphomimic variant of the C-terminal domain of FD (amino acids 203-285) (domain or fragment) KKRGQDSNEGSGNRRHKRMIKNRESAARSRARKQAYTNELELEVAHLQAENARLKRQQDQLKMAAAIQQPKKNTLQRSSEAPF | binds | –
B1 | – | binds
TERMINAL FLOWER 1 (TFL1) (natural protein) not shown | binds | –
